“Also recorded” adds a separate entry of the source.
What was measured:
eAPP230–624 [1] = target: T1, eAPP230–624 (Homo sapiens, UniProt P05067); assay: Intrinsic tryptophan fluorescence of eAPP230–624; type: binding; conditions: for inhibition of eAPP dimerization (in words): legend of titration of 0.64 µM eAPP230–624 with 0–60 µM fragment; for log(EC50), EC50 = molar ratio Aβ to eAPP230–624 that invokes half the response: quenching at 375 nm, equation 4, n constrained to 7, R^2 = 0.88, differences not significant at p<0.05
T1 construct: made in house
T1 sequence (P05067 230-624 isoform P05067-4): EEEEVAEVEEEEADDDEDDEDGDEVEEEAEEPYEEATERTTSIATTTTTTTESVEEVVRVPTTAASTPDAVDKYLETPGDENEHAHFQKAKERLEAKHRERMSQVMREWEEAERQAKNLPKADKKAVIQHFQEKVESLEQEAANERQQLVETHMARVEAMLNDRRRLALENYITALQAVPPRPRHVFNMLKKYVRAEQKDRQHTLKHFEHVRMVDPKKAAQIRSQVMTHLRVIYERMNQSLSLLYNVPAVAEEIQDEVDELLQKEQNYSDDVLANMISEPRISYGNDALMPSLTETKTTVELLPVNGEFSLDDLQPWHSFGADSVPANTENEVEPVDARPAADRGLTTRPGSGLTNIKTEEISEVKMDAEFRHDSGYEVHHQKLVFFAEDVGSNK
Experimental: (§1) The excitation spectra of the intrinsic tryptophan fluorescence were recorded using either a Shimadzu RF-530PC (Shimadzu Scientific Instruments) or a Spectramax XPS spectrophotometer (Molecular Devices).
Full emission spectra were measured with the Shimadzu RF-530PC using a 3 ml quartz cuvette, a 5 nm slit width and protein concentrations between 0.2–0.6 µM. […] For these larger dilutions, control titrations with the protein alone were used to generate a scaling matrix where the scale factor was both a function of wavelength and dilution. […] A similar scaling matrix was used to correct for the effect of dilution with DMSO. […] All titrations were performed at 24°C. The oligomers were stored on ice during the experiment.
These concentrations are analogous to concentrations used to create complexes for the small angle x-ray scattering analysis. The incubated material was diluted with PBS so that the final protein concentration was 0.5 µM. The spectra were recorded with the Shimadzu […].
For experiments with the Spectromax XPS plate reader, an excitation wavelength of 295 nm was used. This excitation wavelength was chosen to minimize both the contribution of tyrosine in the protein and the background fluorescence of the 96-well plates (Costar #3915).
For the quenching experiments, the data were analyzed by constructing Stern-Volmer plots, F0/F vs. Q, where Fo is the intensity of the fluorescence at zero concentration, F is the intensity of the fluorescence, and Q is the concentration of the quenching agent. When quenching is through either a static (binding) or dynamic (collisional) mechanism this plot is linear and follows the equation: [drawing 1] (1) where Ksv is the quenching constant. When both processes are present the Stern-Volmer plot is quadratic: [drawing 2] (2) where KD is the equilibrium constant associated with dynamic quenching and Ks is the equilibrium constant associated with static quenching. All parameters were determined using PRISM (GraphPad) and the appropriate non-linear curve fitting routine.
The centroid wavelength (λc) was calculated as: [drawing 3] (3) where I(λi) is the intensity observed for the wavelength (λi). The range of wavelengths was 310–390 nm.

[2] = tested on: B103 rat neuroblastoma cells stably expressing human wild-type APP; assay: sAPPα and sAPPβ production in B103 cells (AlphaLISA); type: cell-based; conditions: 1 µM compound, 24 hours, 100,000 cells per well, vs 0.01% DMSO
Experimental: (§2) B103 rat neuroblastoma cells and 7W-CHO cells were seeded at 100,000 or 50,000 cells per well in a 96-well plate and allowed to grow for one day. The B103 rat neuroblastoma cells stably expressing human wild-type APP were a kind gift from Dr. Lennart Mucke (J. David Gladstone Institute of Neurological Disease and University of California, San Francisco). The 7W-CHO cells were a kind gift from Dr. Edward Koo (Department of Molecular Pathology, University of California, San Diego). The cell culture medium was then changed and the cells treated with 1 µM disulfiram, 1 µM sulfiram, or 0.01% DMSO (control). After 24 hours, the amount of sAPPα and sAPPβ produced in the medium was quantified using the AL231C and AL232C AlphaLISA kits from Perkin Elmer, respectively, modified using a custom biotinylated APP antibody.
A) Effect of treatment with disulfiram and sulfiram on sAPPα and Aβ production in 7W-CHO cells. […] After 24 hours, the amount of sAPPα and sAPPβ produced in the medium was quantified using the AL231C and AL232C AlphaLISA kit from Perkin Elmer, modified using a custom biotinylated human APP antibody. B) Effect on the ratio of α to β cleavage in 7W-CHO cells, as calculated by dividing the amount of sAPPα to sAPPβ produced by the 50,000 7W-CHO cells during one day under the effect of either disulfiram, sulfiram or a DMSO control. […]

7W-CHO cells = assay: sAPPα and sAPPβ production in 7W-CHO cells (AlphaLISA); type: cell-based; conditions: for sAPPα production / α-cleavage of APP (in words): 1 µM compound, 24 hours, 50,000 cells per well, vs 0.01% DMSO
Experimental: as §2
A) Effect of treatment with disulfiram and sulfiram on sAPPα and Aβ production in 7W-CHO cells. 7W-CHO cells were seeded at 50,000 cells per well in a 96-well plate and allowed to grow for one day. The cell culture medium was then changed and the cells treated with 1 µM disulfiram, 1 µM sulfiram, or 0.01% DMSO (control). After 24 hours, the amount of sAPPα and sAPPβ produced in the medium was quantified using the AL231C and AL232C AlphaLISA kit from Perkin Elmer, modified using a custom biotinylated human APP antibody. B) Effect on the ratio of α to β cleavage in 7W-CHO cells, as calculated by dividing the amount of sAPPα to sAPPβ produced by the 50,000 7W-CHO cells during one day under the effect of either disulfiram, sulfiram or a DMSO control. C) Effect on the ratio of α to β cleavage in B103 cells. B103 neuroblastoma cells were seeded at 100,000 cells per well in a 96-well plate and allowed to grow for one day. The cell culture medium was then changed and the cells treated with 1 µM disulfiram, 1 µM sulfiram, or 0.01% DMSO (Control). After 24 hours, the amount of sAPPα and sAPPβ produced in the medium was quantified using the same modified AL231C and AL232C AlphaLISA kit from Perkin Elmer. The ratio of α to β cleavage was calculated by dividing the amount of sAPPα to sAPPβ produced by the 100,000 B103 cells during one day under the effect of the disulfiram, sulfiram or DMSO control.

MBP-eAPP230–624 = assay: Small-angle X-ray scattering (SAXS) of MBP-eAPP230–624 complexes; type: binding; conditions: 50 µM compound, 1:12 molar ratio, PBS plus 2% DMSO
Experimental: as §1
(§3) The samples were incubated on ice for 20 minutes and then concentrated to 50 µl with 10-kDa cutoff concentrators (Millipore). […] Samples of the filtrates were used for buffer subtraction.
(§4) The samples were then concentrated and purified with a Superdex S200 size-exclusion column with 20 mM Tris pH 7.4, 100 mM sodium chloride and 2 mM EDTA. Samples of the protein buffer from the size-exclusion columns were used for buffer subtraction.
(§5) Data collection and processing
(§6) Small-angle X-ray scattering data were collected using protein concentrations in the range of 0.5–3 mg/ml and an X-ray wavelength of 1.11 Å at beam line 12.3.1 (Advanced Light Source). Data were integrated with software customized for the beam line and processed with the program PRIMUS [30]. The program GNOM [31] was used to calculate the maximum dimension and the radius of gyration and to estimate the intensity of the scattering at zero angle for higher concentration samples.

eAPP230–624 [3] = target: T1, eAPP230–624; assay: Difference absorption spectra of eAPP230–624; type: binding; conditions: 1:6 molar ratio, 8.3 µM eAPP230–624, 50 µM compound, PBS plus 2% DMSO
eAPP230–624 [4] = target: T1, eAPP230–624; assay: Small-angle X-ray scattering (SAXS) of eAPP230–624 complexes; type: binding
Experimental: as §3, §4, §5, §6

[5] = incubated, 1:6 molar ratio, 0.5 µM eAPP230–624

Aβ12-24: Aβ fragment (VHHQKLVFFAEDV; Amyloid-beta protein 42; UniProt P05067 683-695, looked up, fragment)
inhibition of eAPP dimerization (in words) (eAPP230–624 [1]): inhibit eAPP dimerization

CCN(CC)C(=S)SC(=S)N(CC)CC [Sulfiram]
sAPPα production / α-cleavage of APP (in words) [2]: significantly enhance the production of sAPPα; also recorded: enhance α-cleavage significantly
sAPPα production / α-cleavage of APP (in words) (7W-CHO cells): increase sAPPα production
sAPPα production / α-cleavage of APP (in words) (7W-CHO cells; listed as sulfiram): significantly enhance the production of sAPPα; also recorded: enhance α-cleavage significantly
relative ability to enhance sAPPα production in cells (in words) (7W-CHO cells; sulfiram vs disulfiram, cell line not stated at place): reduced ability to enhance sAPPα production in cells
effect on monomer-dimer equilibrium / dimerization of MBP-eAPP230–624 (in words) (MBP-eAPP230–624): significantly affected the monomer-dimer equilibrium of MBP-eAPP230–624 in favor of the monomer; also recorded: shift the monomer-dimer equilibrium in favor of the monomer
change in extinction coefficient (eAPP230–624 [3]): significant drop in the extinction coefficient
quenching of intrinsic fluorescence (in words) (eAPP230–624 [1]; 0.64 µM eAPP230–624, disulfiram 0–130 µM, sulfiram 0–320 µM, Shimadzu RF-530PC): significantly quenched the intrinsic fluorescence
effect on dimerization of the ectodomain fragment (in words) (eAPP230–624 [1]; intrinsic fluorescence, confirmed with SAXS): inhibit dimerization of the ectodomain fragment

7-kDa Aβ1-40: 7-kDa Aβ1-40 dimers, prepared by sonication and 15 minutes incubation
inhibition of eAPP dimerization (in words) (eAPP230–624 [1]): inhibit eAPP dimerization
MWcalc/MWseq (eAPP230–624 [4]; SAXS relative mass, MWseq 45-kDa for eAPP230–624, max. error ±0.2, monomer around 1.3, protein alone 2.0): 1.2
Dmax (eAPP230–624 [4]; SAXS, maximum dimension, GNOM, max. estimated error ±10 Å, eAPP230–624 with peptide): 180 Å
Rg (eAPP230–624 [4]; SAXS, radius of gyration, GNOM, max. estimated error ±2 Å, eAPP230–624 with peptide): 49 Å

13-kDa Aβ1-40: 13-kDa Aβ1-40 oligomer pool
more oligomers that can bind eAPP (ratio of amplitudes A) (eAPP230–624 [1]; from ratio of amplitudes of maximal response, vs 70-kDa pools, Spectramax XPS): about 150%
blue-shift in the centroid wavelength (eAPP230–624 [1]; [5]): did not produce a significant blue shift
fluorescence intensity relative to eAPP230–624 (eAPP230–624 [1]; [5]): 80%
log(EC50), EC50 = molar ratio Aβ to eAPP230–624 that invokes half the response (eAPP230–624 [1]; Spectramax XPS): 1.27±0.02

Aβ1-42 species greater than 200-kDa: Aβ1-42 species greater than 200-kDa in size
effect on intrinsic fluorescence at 375 nm (in words) (eAPP230–624 [1]; Spectramax XPS, increasing molar ratio, up to 120 µM Aβ): slight enhancement of the intrinsic fluorescence
change in fluorescence spectra (in words) (eAPP230–624 [1]; [5]): relatively minor change in the fluorescence spectra

Aβ12-28: Aβ fragment
inhibition of eAPP dimerization (in words) (eAPP230–624 [1]): inhibit eAPP dimerization
pattern of changes in the intrinsic fluorescence (in words) (eAPP230–624 [1]; titration of 0.64 µM eAPP230–624, 345 nm): acted like Aβ1-40 dimers in terms of the changes in the intrinsic fluorescence

70-kDa Aβ1-40: 70-kDa Aβ1-40 oligomer pool
log(EC50), EC50 = molar ratio Aβ to eAPP230–624 that invokes half the response (eAPP230–624 [1]; Spectramax XPS): 1.32±0.01

Reference: paper PMC3386930, “Altering APP Proteolysis: Increasing sAPPalpha Production by Targeting Dimerization of the APP Ectodomain” (PLoS ONE, 2012)
